Laboratory results published in patent US20170119854A1, “HIGHLY CONCENTRATED DRUG PARTICLES, FORMULATIONS, SUSPENSIONS AND USES THEREOF” (Intarcia Therapeutics, Inc., priority 2008, published 2017).

Experiment: In vitro release rate from implantable osmotic delivery device (RP-HPLC)
Format: physicochemical
Details: 37° C., out to 100 days
Description: For each study, a drug reservoir of an implantable osmotic delivery device was filled with 160 μl of one of the suspension formulations described in Example 2. The membrane ends of the osmotic pumps were placed into stoppered glass vials filled with 3 ml phosphate buffer solution (PBS), and the diffusion moderator ends of the osmotic pumps were placed into glass vials filled with 2.5 to 3 ml release rate medium (citrate buffer solution at pH 6.0 with 0.14 M NaCl and 0.2% sodium azide).
Each system was placed into a capped test tube, with the diffusion moderator side down, and partially immersed in a 37° C. water bath. At specified time points, the glass vials at the diffusion moderator ends were replaced with new glass vials filled with 2.5 to 3 ml release rate medium (citrate buffer solution at pH 6.0 with 0.14 M NaCl and 0.2% sodium azide). Samples were collected from the diffusion moderator ends of the osmotic pumps and analyzed using RP-HPLC.

omega interferon showed an approximate release rate of ~50 µg/day.
